Test results published in article doi:10.1101/466904 (bioRxiv, 2018).
Positions count from the first letter of the chain named. Read-outs that look alike come from different tables or passages of the source.

How the values were obtained:
[1] = target: 3RJT protein Asn183Ala mutant (Alicyclobacillus acidocaldarius subsp. Acidocaldarius DSM446); assay: SEC
Cph, Axe2 homologue [2] = assay: dynamic light scattering
Cph, Axe2 homologue [3] = assay: SEC
Pal, Axe2 homologue [4] = assay: dynamic light scattering
Pal, Axe2 homologue [5] = assay: SEC
Pda, Axe2 homologue [6] = assay: dynamic light scattering
Pda, Axe2 homologue [7] = assay: SEC
Pjd, Axe2 homologue [8] = assay: dynamic light scattering
Pjd, Axe2 homologue [9] = assay: SEC
Sku, Axe2 homologue [10] = assay: dynamic light scattering
Sku, Axe2 homologue [11] = assay: SEC
SEC [12] = target: the molecule itself; assay: SEC
SEC [13] = target: the molecule itself; assay: SEC; remark: listed apart in the source
SEC [14] = target: the molecule itself; assay: SEC; remark: listed apart in the source

For 3RJT protein Asn183Ala mutant (enzyme), which stoichiometry N [1] is on record?
Its stoichiometry N is 2.

With Cph, Axe2 homologue (enzyme) as the molecule, how does the stoichiometry N (Cph, Axe2 homologue [2]) read?
The stoichiometry N was 8.

And the stoichiometry N (Cph, Axe2 homologue [3])?
The stoichiometry N was 8.

Pal, Axe2 homologue (enzyme) was tested. Which stoichiometry N (Pal, Axe2 homologue [4]) did it give?
Its stoichiometry N is 8.

And the stoichiometry N (Pal, Axe2 homologue [5])?
Its stoichiometry N is 8.

For Pda, Axe2 homologue (enzyme), which stoichiometry N (Pda, Axe2 homologue [6]) is on record?
Its stoichiometry N is 8.

And the stoichiometry N (Pda, Axe2 homologue [7])?
The stoichiometry N was 8.

Which stoichiometry N (Pjd, Axe2 homologue [8]) does the source give for Pjd, Axe2 homologue (enzyme) here?
The stoichiometry N was 8.

And the stoichiometry N (Pjd, Axe2 homologue [9])?
Its stoichiometry N is 8.

Which results are given for Sku, Axe2 homologue (enzyme)?
stoichiometry N (Sku, Axe2 homologue [10]): 8; stoichiometry N (Sku, Axe2 homologue [11]): 8

B1: Axe2 acetyl-xylo-oligosaccharide esterase from Geobacillus stearothermophilus, wild type (enzyme)
chain: MKIGSGEKLLFIGDSITDCGRARPEGEGSFGALGTGYVAYVVGLLQAVYPELGIRVVNKGISGNTVRDLKARWEEDVIAQKPDWVSIMIGINDVWRQYDLPFMKEKHVYLDEYEATLRSLVLETKPLVKGIILMTPFYIEGNEQDPMRRTMDQYGRVVKQIAEETNSLFVDTQAAFNEVLKTLYPAALAWDRVHPSVAGHMILARAFLREIGFEWVRSR
B1 was tested. Which “stoichiometry N” value (SEC [12]) did it give?
Its value is 8.

B2: Axe2 Arg55Ala mutant (enzyme)
chain: B1 chain with R55A
For B2, which “stoichiometry N” value (SEC [13]) is on record?
The value was 8.

B3: Axe2 Trp190Ile mutant (enzyme)
chain: B1 chain with W190I
B3 was tested. Which “stoichiometry N” value (SEC [12]) did it give?
The value was 8.

B4: Axe2 Tyr184Phe mutant (enzyme)
chain: B1 chain with Y184F
B4 was tested. Which “stoichiometry N” value (SEC [12]) did it give?
The value was 2.

B5: Axe2 Arg55Glu mutant (enzyme)
chain: B1 chain with R55E
What does the source list for B5?
stoichiometry N (SEC [14]): 2; stoichiometry N (SEC [13]): 8

B6: Axe2 triple mutant Tyr184Phe-Arg205Ala-Trp215Ala (enzyme)
chain: B1 chain with Y184F, R205A, W215A
How did the “stoichiometry N” value (SEC [12]) turn out when B6 was run?
Its value is 2.

B7: Axe2 Arg192Lys mutant (enzyme)
chain: B1 chain with R192K
How did the “stoichiometry N” value (SEC [12]) turn out when B7 was run?
The value was 2.
